The nanobody polyreactivity screen of Harvey et al. (2022)

assay: yeast display, Sf9 membrane polyspecificity reagent, FACS + sequencing; frameworks hold sequencing errors
In short: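 Galactose induction of a Saccharomyces cerevisiae BJ5465 synthetic nanobody display library ran 36–48 hours. The cells were then stained for 1 hour at 4 °C with 10% biotinylated, detergent-solubilized Sf9 membrane reagent, pulled down on streptavidin microbeads and FACS-sorted into low and high (top ~1%) gates on expression and reagent-binding fluorescence. Labels for polyreactivity follow the gate of origin.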

Row | Sequence | polyreactivity (PSR sort gate)
1 | QVQLVESGGGLVQAGGSLRLSCAASGRIFGRYTMGWYRQAPGKERELVAAISARGGSTYYADSVKGRFTISRDNAKNTVYLQMNSLKPEDTAVYYCDAEYVVWYLDRFNYWGQGTQVTVSS | high polyreactivity
2 | QVQLVESGGGLVQAGGSLRLSCAASGSTFSANTMGWYRPAPGKERELLAAISSSGVGTRYADSVKGRFTISRDTAKNNVYLQMKSLKPEDTAVYYCAADYRPTVITRNDYWGQGTQVTVSS | low polyreactivity
3 | QVQLVESGGGLVQAGGSLRLSCAASGRILGAYAMGWYRQAPGKERELVASISSGGRTYYADSVKGRFTISRDNAKNTVYLQMNSLKPEDTAVYYCAAYVYTSFLYYYWGQGTQVTVSS | high polyreactivity
4 | QVQLVESGGGLVQAGGSLRLSCAASGNIFRPYTMGWYSQAPGKERQLVARISSGGSTNYADSVKGRFTISRDNAKNTVYLQMNSLKPEDTAVYYCAKRYGTVHSRYGYWGQGTQVTVSS | high polyreactivity
5 | QVQLVESGGGLVQAGGSLRLSCAASGFIFGVYAMGWYRQAPGKEREFVAAISWTGGSTSYADSVKGRFTISRDNAKNTVYLQMNSLKPEDTAVYYCARRRSYKRRFDYWGQGTQVTVSS | low polyreactivity
6 | QVQLVESGGGLVQAGGSLRLSCAASGRTFFHYAMGWSRQAPGKERELVAGISSGGRTKYADSVKGRFTISRDNAKNTVYLQMNSLKPEDTAVYYCAASYIVWLTRGAPRKRFDYWGQGTQVTVSS | high polyreactivity
7 | QVQLVESGGGLVQAGGSLRLSCAASGFIFTRNAMAWYRQAPGKEREMVAGISVRGGATYYADSVKGRFTLSRDNAKNSFYLQMNSLKPEDTAVYYCAARYWRGPRYDYWGQGTKVTVSS | high polyreactivity
8 | QVQLVESGGGIVQAGGSLRLSCAASGRIFSGNAMGWYRQAPGKERELVATISRRGGSTYYADSVKGRFTISRDNAKNTVYLLMNSLKPEDTAVYYCAVDPYAWTKWSTYNYWGQGTQVTVSS | high polyreactivity
9 | QVQLVESGGGLVQAGGSLRLSCAASGRIFSQNAMGWYRQAPGKERELVAAISGGSTNYADSVKGRFTISRDNAKNTVFLQMNSLKPEDTAVYYCAADAPFKMDYWGQGTQVTVSS | low polyreactivity
10 | QVQLVESGGGLVQAGGSLRLSCAASGMIFGYYVMGWYRQAPGKERELVAAINSGGNTNYADSVKGRFTISRDNAKNTVYLQMNSLKPEDTAVYYCNRSYDSTDIREDYWGQGTQVTVSS | low polyreactivity
11 | QVQLVESGGGLVQAGGSLRLSCAASGSTFSWYSMGWYRQAPGKQRELVAAISSRGGRTYYADSVKGRFTISRDNAKNTVYLQMNSLKPDDTAVYFCAARSRRGEYDYWGQGTQVTVSS | high polyreactivity
12 | QVQLVESGGGLVQAGGSLRLSCAASGRTFYDYAMGWYRQAPGKERELVAGIRWSGGSTYYADSVKGRFTISRDNAKNTVYLQMISLKPEDTAVYYCAADWFAGVAADVEYDYWGQGTQVTVSS | low polyreactivity
13 | QVQLVESGGGLVQAGGSLRLSSAASGSIFRSNAMGWYRQAHGKERELVAAITSGTRTYYADSVKGRFTISRDNAKNTVYLQMNSLKPEDTAVFYCATKGSKYVRGYWGQGTQVTVSS | high polyreactivity
14 | QVQLVESGGGLVQAGGSLRLSCAASGSIFSKYAMGWYRQAPGKEREFVAAISRSGGRTYYADSVKGRFTISRDNAKNTVYLQMNSLKPEDTAVYYCAAYPYNPRRRTEGDYWGQGTQVTVSS | high polyreactivity
15 | QVQLVESGGGLVQEGGSLRLSCAASGSLFDVYAMGWYRQAPGKERELVAAISSSGSTYYADSVKGRFTISRDNAKNTVYLQMNSLKPEDTAVYYCAADQADDDDYYYWGQGTQVTVSS | low polyreactivity
16 | QVQLLESGGGLVQAGGCLRLSCAASGFTFYGYARGWYRQAPGIERELVAGIAKCGTRTYYADSLKGRFTISRDNAENTVFFQMNSLKPEDTAVYYCAARLRRGLTATWYYYWGQGSQVTVSS | high polyreactivity
17 | QVQLVESGGGLVQAGGSLRLSCAASGIIFYDYAMGWYRQAPGKERELVAAITSNGDNTYYADSVKGRFTISRDNAKNTVYLQMNSLKPEDTAVYYCAVDGSFAADFDNYLEEYGYWGQGTQVSVSS | low polyreactivity
18 | QVQLVESGGGLVQAGGSLRLSCAASGYIFDIYDMGWYRQATGKERELVAAITDYADSVKGRFTISRDNAKNTVYLQMNSLKPEDTAVYYCNVKFLVQPVTSVIGDYWGQGTQVTVSS | low polyreactivity
19 | QVQLVESGGGLVQAGGSLRLSCAASGNTFVPYAMGWYRQAPGKEREFVAAISSTSGSTYYADSVKGRFTISRDNAKNTVYLQMNSLTPEDTAVYYCAAANHKCSRMDYWGQGTQVTVSS | high polyreactivity
20 | QVQLVESGGGLVQAGGSLRLSCAASGRIFYGNTMGWYRQAPGQERELVATITRSGGSTYYADSVKGRFTISRDNAKNTVYLQMNNLKPEDTAVYYCAVGYWRLFPYGYWGQGTQVTVSS | high polyreactivity
21 | QVQLVESGGGLVQAGGSLRLSCAASGRIILVYAMGWYRQAPGKEREVVAAISSGGSTYYADSVKGRFTISRDTAKNPVYLQMNSLKPDDTAVYYSAARTAVGPIRSYWYDYWGQGTQVTVSS | low polyreactivity
22 | QVQLVESGGGLVQAGGILRLICAASGFIFLGYALGWYRQAPGTERELVAAISSDSDKNYADSVKGRFTISRDNAKNTVYLQMNILKPEDTAVYYCIADIDSYREMDYWGQGTQVTVSS | low polyreactivity
23 | QVQLVESGGGLVQAGGSLRLSCAASGSTFYPYAMGWYRQAPGKERELVAAISSGGSTYYADSVKGRFTISRDNAKNTVYLQMNSLKPEDTAVYYCAADFYYAYYWGQGTEVTVSS | low polyreactivity
24 | QVQLVESGGGLVQAGGSLRLSCAASGYIFGVYAMGWYRQAPGKERELVAVITVTGGSTYYADSVKGRFTISRDNAKNTVYLQMNSLKPEDTAVYYCNTLEYLEYDYWGQGTQVTVSS | high polyreactivity
25 | QDQHVESGGGLVQAGGSLRLSCAASGTIFCYYAMGWYRQAPGKERGLVASISWNGTSTYYADSVKGRFTISRDNSKNTVYLQMNCLNPEDTAVYYCNVRFNYRGTYDYWGQGTQVTVSS | low polyreactivity
26 | QVQLVESGGGLVHAGGSIRLSCAASGRIFDSNAMGRYRQAPGKEREVVAAITYSGGGTFYADSVKGRFTSSRDNAKNTVYLQMNCLKPEDTAVYYCNKLPHYFGPVYWFKGDDGYWGQGTQVTVTS | high polyreactivity
27 | QVQLVESGGGLVQAGGSLRLSCAPSGSTFYPYAMGWYRQAPGKEREFVAAIRSSGTSTYYADSVKGRFTISRDNAKNTVYLQMNSLKPEDTAVYYCAARVRGYSVTRTKPASIGGGSWGQGTQVTVSS | high polyreactivity
28 | QVQLVESGGVLVQAGGSLPLSCAASGSIFGSYAMGWSRQAPGKERELVAAIRWSGGSTRYADSVKGRFTISRDIAKNRVYLHMNSLKPEDTAVYYCAAVWRYLGYTSMDYWGQGTQVTVSS | low polyreactivity
29 | QVQLVDSGGGLVQAGGSLRLSCAASGGTFDWYTMGWYRQAPGKERELVADITSGGSTYYADSVKGRFTISRDNAKNTVYLQMNSLKPEDTAVCYCATTVYSTSGYPYDYWGQGTQVTVSS | high polyreactivity
30 | QVQLVESGGGLVQAGGSHRLSCAASGIIFWYNAMGWYRQAPGKERELVAAISRGGGNTYADSVKGRFTISRDNAKNTVYLQMKSLKPEDTAVYYCAAKRSGYRFNTRWFRLPKYDYWGQGTQVTVSS | low polyreactivity
